Measured values: paper PMC6007841 (Journal of medicinal chemistry, 2018)
Bridge positions count the residues as written; N and C are the ends. Ends that are not written are not given here.

B1: mouse β-defensin 1, oxidized form (peptide, UniProt P56386 33-69, looked up)
chain: DQYKCLQHGGFCLRSSCPSNTKLQGTCKPDKPNCCKS
modifications: disulfide 12-27, 17-35, 5-34
B2: human β-defensin 1, oxidized form (peptide, UniProt P60022 33-68, looked up)
chain: DHYNCVSSGGQCLYSACPIFTKIQGTCYRGKAKCCK
modifications: oxidized form (disulfide bonds formed)
B3: human β-defensin 3, oxidized, folded form (peptide, UniProt P81534 23-67, looked up)
chain: GIINTLQKYYCRVRGGRCAVLSCLPKEEQIGKCSTRGRKCCRRKK
modifications: oxidized, folded form (disulfide bonds formed)

Columns and labels:
Experiment in all cases: cell-based or functional assay
[1] = molecular target: mouse melanocortin 1 receptor (mouse, UniProt Q01727 1-315)
[2] = molecular target: mouse melanocortin 3 receptor (mouse, UniProt P33033 1-323)
[3] = molecular target: mouse melanocortin 5 receptor (mouse, UniProt P41149 1-325)
[4] = molecular target: human melanocortin 1 receptor (human, UniProt Q01726 1-317)
[5] = molecular target: human melanocortin 3 receptor (human, UniProt P41968 1-323)
[6] = molecular target: human melanocortin 4 receptor (human, UniProt P32245 1-332)
Chain of human melanocortin 4 receptor (P32245 whole entry): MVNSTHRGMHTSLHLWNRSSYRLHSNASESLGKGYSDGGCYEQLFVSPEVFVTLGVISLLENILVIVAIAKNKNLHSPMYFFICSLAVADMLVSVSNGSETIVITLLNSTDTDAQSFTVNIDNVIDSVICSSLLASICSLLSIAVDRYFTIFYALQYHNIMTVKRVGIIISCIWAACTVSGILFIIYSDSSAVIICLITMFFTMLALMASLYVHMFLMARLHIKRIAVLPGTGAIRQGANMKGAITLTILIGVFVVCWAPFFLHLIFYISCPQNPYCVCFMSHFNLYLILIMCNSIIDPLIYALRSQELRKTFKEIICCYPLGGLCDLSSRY

Chain of human melanocortin 1 receptor (Q01726 whole entry): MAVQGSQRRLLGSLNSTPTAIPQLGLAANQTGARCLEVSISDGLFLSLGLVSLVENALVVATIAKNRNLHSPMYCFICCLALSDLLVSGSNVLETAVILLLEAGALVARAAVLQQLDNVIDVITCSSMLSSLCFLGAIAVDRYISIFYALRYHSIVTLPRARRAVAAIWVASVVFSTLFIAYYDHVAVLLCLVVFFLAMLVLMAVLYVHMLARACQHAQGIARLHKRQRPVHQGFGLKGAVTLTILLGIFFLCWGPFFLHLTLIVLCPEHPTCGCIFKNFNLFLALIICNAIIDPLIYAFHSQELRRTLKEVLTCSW
Chain of mouse melanocortin 5 receptor (P41149 whole entry): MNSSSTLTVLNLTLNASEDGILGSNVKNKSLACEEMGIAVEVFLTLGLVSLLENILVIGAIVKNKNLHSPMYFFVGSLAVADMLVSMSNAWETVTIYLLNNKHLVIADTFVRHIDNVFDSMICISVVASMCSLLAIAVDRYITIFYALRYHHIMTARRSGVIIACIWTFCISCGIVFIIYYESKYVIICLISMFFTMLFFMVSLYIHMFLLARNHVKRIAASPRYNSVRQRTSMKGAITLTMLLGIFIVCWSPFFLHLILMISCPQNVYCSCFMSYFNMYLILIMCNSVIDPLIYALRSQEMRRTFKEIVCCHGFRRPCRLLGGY
Chain of mouse melanocortin 1 receptor (Q01727 whole entry): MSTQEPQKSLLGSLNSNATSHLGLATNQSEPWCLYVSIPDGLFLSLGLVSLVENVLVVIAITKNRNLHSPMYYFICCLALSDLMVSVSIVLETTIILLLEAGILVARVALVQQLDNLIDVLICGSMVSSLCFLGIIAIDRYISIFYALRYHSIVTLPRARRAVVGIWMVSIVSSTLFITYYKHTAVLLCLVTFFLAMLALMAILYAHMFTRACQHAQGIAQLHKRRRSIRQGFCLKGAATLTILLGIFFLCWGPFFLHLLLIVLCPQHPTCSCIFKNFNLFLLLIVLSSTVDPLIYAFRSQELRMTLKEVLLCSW
Chain of mouse melanocortin 3 receptor (P33033 whole entry): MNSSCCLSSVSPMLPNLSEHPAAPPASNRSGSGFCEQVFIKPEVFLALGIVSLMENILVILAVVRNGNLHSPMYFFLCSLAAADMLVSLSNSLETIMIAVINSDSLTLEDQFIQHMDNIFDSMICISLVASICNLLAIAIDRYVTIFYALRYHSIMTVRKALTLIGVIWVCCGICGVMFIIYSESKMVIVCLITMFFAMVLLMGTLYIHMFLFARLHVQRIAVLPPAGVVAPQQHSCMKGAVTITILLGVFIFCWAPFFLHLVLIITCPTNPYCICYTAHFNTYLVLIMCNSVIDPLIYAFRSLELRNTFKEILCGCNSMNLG
Chain of human melanocortin 3 receptor (P41968 whole entry): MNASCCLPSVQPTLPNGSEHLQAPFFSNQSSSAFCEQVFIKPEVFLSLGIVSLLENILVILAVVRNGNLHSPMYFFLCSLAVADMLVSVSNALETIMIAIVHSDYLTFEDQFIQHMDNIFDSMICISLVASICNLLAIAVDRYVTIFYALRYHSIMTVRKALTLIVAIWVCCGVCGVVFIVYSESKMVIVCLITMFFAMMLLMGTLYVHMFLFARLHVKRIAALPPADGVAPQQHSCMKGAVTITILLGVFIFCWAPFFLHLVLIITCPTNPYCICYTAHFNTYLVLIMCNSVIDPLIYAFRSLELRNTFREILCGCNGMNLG

Binder | cAMP agonist EC50 (AlphaScreen cAMP assay, HEK293 cells expressing the receptor) [1] | cAMP agonist EC50 (AlphaScreen cAMP assay, HEK293 cells expressing the receptor) [2] | cAMP agonist EC50 (AlphaScreen cAMP assay, HEK293 cells expressing the receptor) [3] | cAMP agonist EC50 (AlphaScreen cAMP assay, HEK293 cells expressing the receptor) [4] | cAMP agonist EC50 (AlphaScreen cAMP assay, HEK293 cells expressing the receptor) [5] | cAMP agonist EC50 (AlphaScreen cAMP assay, HEK293 cells expressing the receptor) [6]
B1 | 11 µM | 14 µM | 5.2 µM | 1.4 µM | 22 µM | 3.8 µM
B2 |  |  |  | 7.4 µM |  | 
B3 | 2.2 µM |  | 4.7 µM | 0.4 µM |  | 2.6 µM
